{
  "source": "paper PMC11574045",
  "about": "“A cofactor-induced repressive type of transcription factor condensation can be induced by synthetic peptides to suppress tumorigenesis” (The EMBO Journal, 2024)",
  "data": [
    {"system": "HEK293FT cells transfected with TF library", "assay": "Screening of TF condensates based on fluorescent puncta", "assay_type": "cell-based", "conditions": "Figure 1B numerical data; TF library screen, one value per transcriptional factor", "in_short": "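Condensate formation is scored as Alexa 488-labelled puncta after Flag- or GAL4-tag immunostaining of fixed HEK293FT cells expressing individual TFs, with a 12 h glucose-free or glucose-containing culture preceding fixation.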", "values": [
      {"molecule": "MBLR (protein, UniProt Q9BYE7 1-350, looked up) Polycomb group RING finger …: MEGVAVVTAGSVGAAKTEGAAALPPPPPVSPPALTPAPAAGEEGPAPLSETGAPGCSGSRPPELEPERSLGRFRGRFEDEDEELEEEEELEEEEEEEEEDMSHFSLRLEGGRQDSEDEEERLINLSELTPYILCSICKGYLIDATTITECLHTFCKSCIVRHFYYSNRCPKCNIVVHQTQPLYNIRLDRQLQDIVYKLVINLEEREKKQMHDFYKERGLEVPKPAVPQPVPSSKGRSKKVLESVFRIPPELDMSLLLEFIGANEGTGHFKPLEKKFVRVSGEATIGHVEKFLRRKMGLDPACQVDIICGDHLLEQYQTLREIRRAIGDAAMQDGLLVLHYGLVVSPLKIT", "Z score of condensed fraction": 0.4702},
      {"molecule": "MLR2 (protein, UniProt Q96JN0 1-433, looked up) Ligand-dependent corepressor: MQRMIQQFAAEYTSKNSSTQDPSQPNSTKNQSLPKASPVTTSPTAATTQNPVLSKLLMADQDSPLDLTVRKSQSEPSEQDGVLDLSTKKSPCAGSTSLSHSPGCSSTQGNGRPGRPSQYRPDGLRSGDGVPPRSLQDGTREGFGHSTSLKVPLARSLQISEELLSRNQLSTAASLGPSGLQNHGQHLILSREASWAKPHYEFNLSRMKFRGNGALSNISDLPFLAENSAFPKMALQAKQDGKKDVSHSSPVDLKIPQVRGMDLSWESRTGDQYSYSSLVMGSQTESALSKKLRAILPKQSRKSMLDAGPDSWGSDAEQSTSGQPYPTSDQEGDPGSKQPRKKRGRYRQYNSEILEEAISVVMSGKMSVSKAQSIYGIPHSTLEYKVKERLGTLKNPPKKKMKLMRSEGPDVSVKIELDPQGEAAQSANESKNE", "Z score of condensed fraction": 0.991},
      {"molecule": "MAGED1 (protein, UniProt Q9Y5V3 1-778, looked up) Melanoma-associated antigen D1: MAQKMDCGAGLLGFQAEASVEDSALLMQTLMEAIQISEAPPTNQATAAASPQSSQPPTANEMADIQVSAAAARPKSAFKVQNATTKGPNGVYDFSQAHNAKDVPNTQPKAAFKSQNATPKGPNAAYDFSQAATTGELAANKSEMAFKAQNATTKVGPNATYNFSQSLNANDLANSRPKTPFKAWNDTTKAPTADTQTQNVNQAKMATSQADIETDPGISEPDGATAQTSADGSQAQNLESRTIIRGKRTRKINNLNVEENSSGDQRRAPLAAGTWRSAPVPVTTQNPPGAPPNVLWQTPLAWQNPSGWQNQTARQTPPARQSPPARQTPPAWQNPVAWQNPVIWPNPVIWQNPVIWPNPIVWPGPVVWPNPLAWQNPPGWQTPPGWQTPPGWQGPPDWQGPPDWPLPPDWPLPPDWPLPTDWPLPPDWIPADWPIPPDWQNLRPSPNLRPSPNSRASQNPGAAQPRDVALLQERANKLVKYLMLKDYTKVPIKRSEMLRDIIREYTDVYPEIIERACFVLEKKFGIQLKEIDKEEHLYILISTPESLAGILGTTKDTPKLGLLLVILGVIFMNGNRASEAVLWEALRKMGLRPGVRHPLLGDLRKLLTYEFVKQKYLDYRRVPNSNPPEYEFLWGLRSYHETSKMKVLRFIAEVQKRDPRDWTAQFMEAADEALDALDAAAAEAEARAEARTRMGIGDEAVSGPWSWDDIEFELLTWDEEGDFGDPWSRIPFTFWARYHQNARSRFPQTFAGPIIGPGGTASANFAANFGAIGFFWVE", "Z score of condensed fraction": -0.7984},
      {"molecule": "MDM4 (protein, UniProt O15151 1-490, looked up) Protein Mdm4: MTSFSTSAQCSTSDSACRISPGQINQVRPKLPLLKILHAAGAQGEMFTVKEVMHYLGQYIMVKQLYDQQEQHMVYCGGDLLGELLGRQSFSVKDPSPLYDMLRKNLVTLATATTDAAQTLALAQDHSMDIPSQDQLKQSAEESSTSRKRTTEDDIPTLPTSEHKCIHSREDEDLIENLAQDETSRLDLGFEEWDVAGLPWWFLGNLRSNYTPRSNGSTDLQTNQDVGTAIVSDTTDDLWFLNESVSEQLGVGIKVEAADTEQTSEEVGKVSDKKVIEVGKNDDLEDSKSLSDDTDVEVTSEDEWQCTECKKFNSPSKRYCFRCWALRKDWYSDCSKLTHSLSTSDITAIPEKENEGNDVPDCRRTISAPVVRPKDAYIKKENSKLFDPCNSVEFLDLAHSSESQETISSMGEQLDNLSEQRTDTENMEDCQNLLKPCSLCEKRPRDGNIIHGRTGHLVTCFHCARRLKKAGASCPICKKEIQLVIKVFIA", "Z score of condensed fraction": 2.3},
      {"molecule": "MEIS3 (protein, UniProt Q99687 1-375, looked up) Homeobox protein Meis3: MARRYDELPHYPGIVDGPAALASFPETVPAVPGPYGPHRPPQPLPPGLDSDGLKREKDEIYGHPLFPLLALVFEKCELATCSPRDGAGAGLGTPPGGDVCSSDSFNEDIAAFAKQVRSERPLFSSNPELDNLMIQAIQVLRFHLLELEKVHDLCDNFCHRYITCLKGKMPIDLVIEDRDGGCREDFEDYPASCPSLPDQNNMWIRDHEDSGSVHLGTPGPSSGGLASQSGDNSSDQGDGLDTSVASPSSGGEDEDLDQERRRNKKRGIFPKVATNIMRAWLFQHLSHPYPSEEQKKQLAQDTGLTILQVNNWFINARRRIVQPMIDQSNRTGQGAAFSPEGQPIGGYTETQPHVAVRPPGSVGMSLNLEGEWHYL", "Z score of condensed fraction": 1.7837},
      {"molecule": "MDFI (protein, UniProt Q99750 1-246, looked up) MyoD family inhibitor: MYQVSGQRPSGCDAPYGAPSAAPGPAQTLSLLPGLEVVTGSTHPAEAAPEEGSLEEAATPMPQGNGPGIPQGLDSTDLDVPTEAVTCQPQGNPLGCTPLLPNDSGHPSELGGTRRAGNGALGGPKAHRKLQTHPSLASQGSKKSKSSSKSTTSQIPLQAQEDCCVHCILSCLFCEFLTLCNIVLDCATCGSCSSEDSCLCCCCCGSGECADCDLPCDLDCGILDACCESADCLEICMECCGLCFSS", "Z score of condensed fraction": 0.558},
      {"molecule": "MESP1 (protein, UniProt Q9BRJ9 1-268, looked up) Mesoderm posterior protein 1: MAQPLCPPLSESWMLSAAWGPTRRPPPSDKDCGRSLVSSPDSWGSTPADSPVASPARPGTLRDPRAPSVGRRGARSSRLGSGQRQSASEREKLRMRTLARALHELRRFLPPSVAPAGQSLTKIETLRLAIRYIGHLSAVLGLSEESLQRRCRQRGDAGSPRGCPLCPDDCPAQMQTRTQAEGQGQGRGLGLVSAVRAGASWGSPPACPGARAAPEPRDPPALFAEAACPEGQAMEPSPPSPLLPGDVLALLETWMPLSPLEWLPEEPK", "Z score of condensed fraction": -1.02},
      {"molecule": "ASCL4 (protein, UniProt Q6XD76 1-172, looked up) Achaete-scute homolog 4: METRKPAERLALPYSLRTAPLGVPGTLPGLPRRDPLRVALRLDAACWEWARSGCARGWQYLPVPLDSAFEPAFLRKRNERERQRVRCVNEGYARLRDHLPRELADKRLSKVETLRAAIDYIKHLQELLERQAWGLEGAAGAVPQRRAECNSDGESKASSAPSPSSEPEEGGS", "Z score of condensed fraction": 1.17},
      {"molecule": "ASCL3 (protein, UniProt Q9NQ33 1-181, looked up) Achaete-scute homolog 3: MMDNRGNSSLPDKLPIFPDSARLPLTRSFYLEPMVTFHVHPEAPVSSPYSEELPRLPFPSDSLILGNYSEPCPFSFPMPYPNYRGCEYSYGPAFTRKRNERERQRVKCVNEGYAQLRHHLPEEYLEKRLSKVETLRAAIKYINYLQSLLYPDKAETKNNPGKVSSMIATTSHHADPMFRIV", "Z score of condensed fraction": 0.02457},
      {"molecule": "MLLT10 (protein, UniProt P55197 1-1068, looked up) Protein AF-10: MVSSDRPVSLEDEVSHSMKEMIGGCCVCSDERGWAENPLVYCDGHGCSVAVHQACYGIVQVPTGPWFCRKCESQERAARVRCELCPHKDGALKRTDNGGWAHVVCALYIPEVQFANVSTMEPIVLQSVPHDRYNKTCYICDEQGRESKAATGACMTCNKHGCRQAFHVTCAQFAGLLCEEEGNGADNVQYCGYCKYHFSKLKKSKRGSNRSYDQSLSDSSSHSQDKHHEKEKKKYKEKDKHKQKHKKQPEPSPALVPSLTVTTEKTYTSTSNNSISGSLKRLEDTTARFTNANFQEVSAHTSSGKDVSETRGSEGKGKKSSAHSSGQRGRKPGGGRNPGTTVSAASPFPQGSFSGTPGSVKSSSGSSVQSPQDFLSFTDSDLRNDSYSHSQQSSATKDVHKGESGSQEGGVNSFSTLIGLPSTSAVTSQPKSFENSPGDLGNSSLPTAGYKRAQTSGIEEETVKEKKRKGNKQSKHGPGRPKGNKNQENVSHLSVSSASPTSSVASAAGSITSSSLQKSPTLLRNGSLQSLSVGSSPVGSEISMQYRHDGACPTTTFSELLNAIHNGIYNSNDVAVSFPNVVSGSGSSTPVSSSHLPQQSSGHLQQVGALSPSAVSSAAPAVATTQANTLSGSSLSQAPSHMYGNRSNSSMAALIAQSENNQTDQDLGDNSRNLVGRGSSPRGSLSPRSPVSSLQIRYDQPGNSSLENLPPVAASIEQLLERQWSEGQQFLLEQGTPSDILGMLKSLHQLQVENRRLEEQIKNLTAKKERLQLLNAQLSVPFPTITANPSPSHQIHTFSAQTAPTTDSLNSSKSPHIGNSFLPDNSLPVLNQDLTSSGQSTSSSSALSTPPPAGQSPAQQGSGVSGVQQVNGVTVGALASGMQPVTSTIPAVSAVGGIIGALPGNQLAINGIVGALNGVMQTPVTMSQNPTPLTHTTVPPNATHPMPATLTNSASGLGLLSDQQRQILIHQQQFQQLLNSQQLTPEQHQAFLYQLMQHHHQQHHQPELQQLQIPGPTQIPINNLLAGTQAPPLHTATTNPFLTIHGDNASQKVARLSDKTGPVAQEKS", "Z score of condensed fraction": 0.7939},
      {"molecule": "MEF2A (protein, UniProt Q02078 1-507, looked up) Myocyte-specific enhancer …: MGRKKIQITRIMDERNRQVTFTKRKFGLMKKAYELSVLCDCEIALIIFNSSNKLFQYASTDMDKVLLKYTEYNEPHESRTNSDIVEALNKKEHRGCDSPDPDTSYVLTPHTEEKYKKINEEFDNMMRNHKIAPGLPPQNFSMSVTVPVTSPNALSYTNPGSSLVSPSLAASSTLTDSSMLSPPQTTLHRNVSPGAPQRPPSTGNAGGMLSTTDLTVPNGAGSSPVGNGFVNSRASPNLIGATGANSLGKVMPTKSPPPPGGGNLGMNSRKPDLRVVIPPSSKGMMPPLSEEEELELNTQRISSSQATQPLATPVVSVTTPSLPPQGLVYSAMPTAYNTDYSLTSADLSALQGFNSPGMLSLGQVSAWQQHHLGQAALSSLVAGGQLSQGSNLSINTNQNISIKSEPISPPRDRMTPSGFQQQQQQQQQQQPPPPPQPQPQPPQPQPRQEMGRSPVDSLSSSSSSYDGSDREDPRGDFHSPIVLGRPPNTEDRESPSVKRMRMDAWVT", "Z score of condensed fraction": -0.6589}
    ]}
  ]
}
